Data: IntAct's records for PubMed 16319076

B1: Profilin-2 (Mus musculus), Q9JJV2-1 (parent)
chain: MAGWQSYVDNLMCDGCCQEAAIVGYCDAKYVWAATAGGVFQSITPVEIDMIVGKDREGFFTNGLTLGAKKCSVIRDSLYVDGDCTMDIRTKSQGGEPTYNVAVGRAGRVLVFVMGKEGVHGGGLNKKAYSMAKYLRDSGF
partner: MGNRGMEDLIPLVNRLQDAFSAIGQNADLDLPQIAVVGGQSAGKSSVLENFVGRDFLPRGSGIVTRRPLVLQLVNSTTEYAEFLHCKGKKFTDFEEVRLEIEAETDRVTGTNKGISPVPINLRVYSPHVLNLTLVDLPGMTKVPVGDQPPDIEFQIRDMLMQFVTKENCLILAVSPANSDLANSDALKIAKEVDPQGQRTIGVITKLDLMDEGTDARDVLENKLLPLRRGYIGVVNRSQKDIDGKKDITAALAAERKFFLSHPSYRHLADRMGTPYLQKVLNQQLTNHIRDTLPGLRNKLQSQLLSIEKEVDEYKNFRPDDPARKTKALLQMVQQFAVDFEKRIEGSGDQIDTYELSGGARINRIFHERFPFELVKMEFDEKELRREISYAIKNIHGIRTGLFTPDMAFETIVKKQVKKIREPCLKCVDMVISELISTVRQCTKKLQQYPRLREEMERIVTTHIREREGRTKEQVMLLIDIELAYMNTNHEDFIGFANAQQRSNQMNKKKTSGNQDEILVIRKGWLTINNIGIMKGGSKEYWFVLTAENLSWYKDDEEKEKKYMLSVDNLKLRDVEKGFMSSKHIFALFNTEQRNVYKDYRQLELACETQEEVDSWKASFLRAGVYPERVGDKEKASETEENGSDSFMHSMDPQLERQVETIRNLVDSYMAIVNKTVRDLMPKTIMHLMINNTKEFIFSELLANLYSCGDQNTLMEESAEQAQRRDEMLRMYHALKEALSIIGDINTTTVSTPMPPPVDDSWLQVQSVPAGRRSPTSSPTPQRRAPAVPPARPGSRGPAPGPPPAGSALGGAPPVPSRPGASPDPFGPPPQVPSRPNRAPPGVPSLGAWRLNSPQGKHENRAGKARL

Variants of: B1
Conditions: with dyn1_mouse Dnm1, P39053

| Variant | effect of a mutation on the interaction |
| --- | --- |
| S138D | decreasing interaction |
